Source: US12653899B2, “Multi-targeted, tunable, sustained delivery of payloads to charged avascular tissues” (Massachusetts Institute of Technology, priority 2019, dated 2026)

Experiments:
[1] = tested on: human ankle cartilage explants; assay: Quantitative uptake of fusion proteins in human ankle cartilage (uptake ratio); type: in vitro ADME; details: 1 μM in PBS + 1% BSA
Description: Cartilage explants were incubated in 250 μL of 1 μM solutions of different fusion proteins dissolved in 1×PBS+1% BSA for either 36 hours (FIG. 4A) or for 108 hours (FIG. 4B) (4.5 days). A group with free +9 GFP dissolved in 1×PBS+1% BSA (1 μM concentration) was included as a control for each of these two time points. An additional untreated control was included in these experiments. Cartilage explants were incubated in plain 1×PBS+1% BSA to account for and to correct for any autofluorescence effects. At the end of the incubation in the 1×PBS+1% BSA: The explants were transferred to a 10×PBS+1% BSA bath for 48 hours. The purpose of this was to desorb the GFPs taken up by the explants. The amount of GFPs left behind in the […] bath was quantified through fluorescence measurements. The desorption step in 10×PBS+1% BSA was followed by a second desorption step using fresh 10×PBS+1% BSA just to ensure any GFPs left in the explant after the 1st desorption come out. At the end of each desorption step, the fluorescence of the 10×PBS+1% BSA bath was measured. After the 2nd desorption step, the explants were digested in Proteinase K and their fluorescence was measured. The uptake ratio for the 36 hour and 108 hour experiments was calculated as (FIG. 4C): […]
Cartilage explants that had been equilibrated in culture medium post-harvest were transferred to sterile PBS and allowed to equilibrate for 1 hour before the start of the experiments. Sterile PBS solutions containing 1% bovine serum albumin (BSA) were prepared. Following this, 1 μM solutions of (+9GFP), (+9GFP)-(GGGGS)4-(IGF-1) (SEQ ID NO: 7), (+9GFP)-(EAAAK)3-(IGF-1) (SEQ ID NO: 8) and (+9GFP)-(GGGGS)3-(IGF-1) (SEQ ID NO: 9) were prepared. The BSA was included in the PBS to minimize loss of GFPs in the solution caused by non-specific binding to the plasticware. […] In contrast, use of polypropylene with 1% BSA enabled complete recovery of fluorescence.
At the end of the incubation period, cartilage explants were washed with PBS and transferred to a solution of 10×PBS+1% BSA for desorption. At the same time, the fluorescence of the absorption bath was measured using a plate reader (Synergy H1, Biotek Instruments Inc.) (excitation: 485 nm, emission: 528 nm). […] At the end of the desorption in 10×PBS+1% BSA, cartilage explants were weighed, and the fluorescence of the desorption bath was measured. This fluorescence measurement was used with a standard curve and the explant wet weights to calculate the concentration of GFP inside cartilage explants (mol/mg wet weight). The uptake ratio was calculated as the ratio of GFP concentration inside cartilage (mol/mg wet weight) to the final absorption bath concentration (mol/mL).

[2] = tested on: human ankle cartilage explants treated with IL-1β; assay: Cumulative sGAG loss and final sGAG content (DMMB) in IL-1β challenge, human ankle cartilage; type: cell-based; details: 100 pg/ml IL-1β alone; 10-day time point
Description: (§1) Preliminary dose response experiments were performed to test the effects of human IL-1β (PeproTech, Rocky Hill, NJ) on human ankle cartilage. Ankle cartilage explants from two different donors (equilibrated in culture medium post-harvest) were cultured in serum-free low glucose medium (same composition as equilibration medium) and treated with continuous IL-1β doses ranging from 10 pg/ml to 1 ng/ml for 8 days. The experiments also included groups of explants that were treated with 300 ng/ml free IGF-1 at each dose level of IL-1β. Based on the results of these experiments, 100 pg/ml IL-1β was chosen as the dose used for the fusion protein dose response experiments. In these experiments, ankle and knee cartilage explants (equilibrated in culture medium post-harvest) were treated continuously with IL-1β and received single doses of fusion proteins (ranging from 39.2 nM to 2 μM) at the start of the experiments. Media changes with IL-1β but without fusion proteins were performed once every 2 to 3 days. An untreated control group, a control with continuous IL-1β alone, and a control with IL-1β combined with continuous free IGF-1 (300 ng/ml or 39.2 nM) were included. Experiments were terminated at 7-day and 10-day timepoints, and the sGAG biosynthesis rate, metabolic rate, sGAG loss to culture medium and sGAG content of the explants were measured.
The metabolic rate of cartilage explants was measured using the Alamar Blue assay (ThermoFisher). Cartilage explants were incubated for 3 hours in a 1× solution of Alamar Blue dissolved in culture medium. At the end of the incubation period, the absorbance of the medium at 570 nm and 600 nm was measured using a microplate reader (Synergy H1 Hybrid Multi-Mode Microplate Reader, BioTek). These readings were used to calculate the percentage reduction of Alamar Blue, which is directly proportional to the explant metabolic rate. These values were first normalized by individual explant weights. Following this, the weight-normalized readings for the treatment groups were normalized by the weight-normalized mean value for the untreated controls. To measure the chondrocyte biosynthesis rate of sulfated glycosaminoglycans (sGAGs), cartilage explants were cultured in the presence of 10 μCi/mL 35S-sulfate radiolabel during the final two days of each experiment. […] To calculate the cumulative loss of GAGs from the explants, the amount of sGAG lost to the medium and that left behind in the explants at the end of the experiment were measured using the dimethylene blue (DMMB) dye binding assay (Farndale et al., Biochim Biophys Acta. 883(2):173-177 (1986)).

[3] = tested on: human ankle cartilage explants treated with IL-1β; assay: IL-1β cytokine challenge model, sGAG biosynthesis rate in human ankle cartilage explants; type: cell-based; details: 100 pg/ml (Experiment 5A also 500 pg/ml and 1000 pg/ml) human IL-1β alone; days 6-8
Description: Cartilage was harvested from the ankles of a donor (Collins Grade 1) and a donor (Collins Grade 1). Cartilage explants were equilibrated in culture media for 2 days after harvest. […] These were cut down to 1 mm thickness and allowed to equilibrate for a further 2 days before experiments were set up. Human IL-1β was used to induce osteoarthritis-like changes in cartilage. Experiments were set up to identify IL-1β doses at which 40 nM of free IGF-1 can rescue the IL-1β induced biosynthesis loss in cartilage. A dose response experiment in which single doses of (+9GFP)-(GGGGS)4-(IGF-1) (SEQ ID NO: 7) and (+9GFP)-(EAAAK)3-(IGF-1) (SEQ ID NO: 8) were added along with 100 pg/ml human IL-1β was also set up.
Experimental groups (N=8 to 10 cartilage explants in each group): Untreated control (Ctrl in FIG. 6A and FIG. 6B), 10 pg/mL human IL-1β (10 pg/ml IL-1b in FIG. 6A and FIG. 6B), 10 pg/mL human IL-1β+40 nM IGF-1 (10 pg/ml IL-1b+40 nM IGF-1 in FIG. 6A and FIG. 6B), 100 pg/mL human IL-1β (100 pg/ml IL-1b in FIG. 6A and FIG. 6B), 100 pg/mL human IL-1β+40 nM IGF-1 (100 pg/ml IL-1b+40 nM IGF-1 in FIG. 6A and FIG. 6B), 500 pg/mL human IL-1β (500 pg/ml IL-1b in FIG. 6A and […]), 500 pg/mL human IL-1β+40 nM IGF-1 (500 pg/ml IL-1b+40 nM IGF-1 in FIG. 6A and FIG. 6B), 1000 pg/mL human IL-1β (1 ng/ml IL-1b in FIG. 6A and FIG. 6B), 1000 pg/mL human IL-1β+40 nM IGF-1 (1 ng/ml IL-1b+40 nM IGF-1 in FIG. 6A and FIG. 6B). Media changes were performed every 2 days and the experiment was terminated after 8 days.
Chondrocyte biosynthesis rate (primarily aggrecan synthesis) was measured between days 6 and 8 of the experiment using a 35S-sulfate radiolabel. Statistics: 1-way ANOVA with post-hoc Tukey's HSD test.
This experiment was set up with cartilage explants from the donor ankle. Experimental groups (N=8 to 10 cartilage explants in each group): Untreated control (Ctrl in FIG. 6C), Continuous human IL-1β control (100 pg/ml dose added with every media change) (IL-1b in FIG. 6C), Continuous human IL-1β+continuous free IGF-1 control (100 pg/ml human IL-1β and 40 nM free IGF-1 dose added with every media change) (IL-1b+IGF1 FIG. 6C), Continuous human IL-1β+(+9GFP)-(GGGGS)4-(IGF-1) (SEQ ID NO: 7) 500 nM single dose (100 pg/ml human IL-1β added with every media change; Single 500 nM fusion protein dose added on Day 0) (IL-1b+0.5 μM Flex-1 in FIG. 6C), Continuous human IL-1β+(+9GFP)-(GGGGS)4-(IGF-1) (SEQ ID NO: 7) 1 μM single dose (100 pg/ml human IL-1β added with every media change; Single 1 μM fusion protein dose added on Day 0) (IL-1b+1 μM Flex-1 in FIG. 6C), Continuous human IL-1β+(+9GFP)-(EAAAK)3-(IGF-1) (SEQ ID NO: 8) 500 nM single dose (100 pg/ml human IL-1β added with every media change; Single 500 nM fusion protein dose added on Day 0), Continuous human IL-1β+(+9GFP)-(EAAAK)3-(IGF-1) (SEQ ID NO: 8) 1 μM single dose (100 pg/ml human IL-1β added with every media change; Single 1 μM fusion protein dose added on Day 0) (IL-1b+1 μM Rig-1 in FIG. 6C).
as §1, with “Media changes with IL-1β but without fusion proteins were performed once every 2 to 3 days. An untreated control group, a control with continuous IL-1β alone, and a control with IL-1β combined with continuous free IGF-1 (300 ng/ml or 39.2 nM) were included. Experiments were terminated at 7-day and 10-day timepoints, and the sGAG biosynthesis rate, metabolic rate, sGAG loss to culture medium and sGAG content of the explants were measured.” left out

Row | Substance | Uptake ratio (Mean) ([1]; 36 hr) | Uptake ratio (Mean) ([1]; 108 hr) | cumulative sGAG loss compared to the untreated control [2] | aggrecan biosynthesis compared to the untreated control [3]
1 | (+9GFP)-(GGGGS)3-(IGF-1): fusion protein of +9 GFP and human IGF-1 with flexible (GGGGS)3 linker, SEQ ID NO: 9 | 13.1 | 24.2 |  | 
2 | IL-1β: human IL-1β (PeproTech), cytokine used to induce osteoarthritis-like biosynthesis loss in cartilage explants [reference compound] |  |  | higher cumulative sGAG loss | significant reduction
